Data taken from paper PMC10646254.

Assays:
[1] = target: SP1 (UniProt P08047); assay: co-immunoprecipitation, western blot; conditions: reference: wild type; sites T361,T366,S381,S387
[2] = target: SP3 (UniProt Q02447); assay: co-immunoprecipitation, western blot; conditions: reference: wild type; sites T361,T366,S381,S387

ELK4 (from UniProt P28324) 4MA (T361/T366/S381/S387A)
binding against the reference [1]: weaker | binding against the reference [2]: weaker
